Assay [1] deals with GMPCPP-stabilized microtubules (TAMRA-labeled, polymerized from bovine brain tubulin) (bovine) (UniProt Q6B856). As to the kind of experiment: single-molecule TIRF microscopy, dwell times.
The target is the same in assay [2]. As to the kind of experiment: single-molecule TIRF microscopy, dwell times. This is another data set of the same source.

From publication doi:10.1101/2022.12.03.518990 come the findings set out here.

Read-outs that look alike come from different tables or passages of the source.

UniProt Q6B856, sequence (Q6B856 whole entry, looked up): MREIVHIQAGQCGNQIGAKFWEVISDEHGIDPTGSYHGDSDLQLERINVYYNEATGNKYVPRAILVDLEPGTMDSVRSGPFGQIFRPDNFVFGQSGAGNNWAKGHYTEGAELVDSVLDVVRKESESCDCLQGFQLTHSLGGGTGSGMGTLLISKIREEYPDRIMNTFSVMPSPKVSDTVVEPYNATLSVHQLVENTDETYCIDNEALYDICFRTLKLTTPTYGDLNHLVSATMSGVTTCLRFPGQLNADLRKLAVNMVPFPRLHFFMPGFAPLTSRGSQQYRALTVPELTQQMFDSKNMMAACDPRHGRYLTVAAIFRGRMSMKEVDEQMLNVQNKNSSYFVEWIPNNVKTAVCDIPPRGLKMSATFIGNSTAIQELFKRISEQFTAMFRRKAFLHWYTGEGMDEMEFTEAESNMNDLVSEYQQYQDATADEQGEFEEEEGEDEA

Take “His-EGFP-L-TOG2-S (EGFP-tagged TOG2 domain and serine-arginine-rich region of human CLASP2α) (domain or fragment)”: the mean dwell time in assay [1] was determined as 0.53 s; in assay [2] it was 3.8 s.
